According to article PMC3750081:

B1: p53 codon 248 O6-POB-G:MeC base pair (dsDNA)
DNA 1: CATGAACCGGAGGCCCATC
DNA 2: GATGGGCCTCCGGTTCATG
modifications: O6-POB-dG at strand 1 position 9; 5-methyl-C at strand 2 position 11
B2: p53 codon 248 5'-MeC O6-POB-G (dsDNA)
DNA 1: CATGAACCGGAGGCCCATC
DNA 2: GATGGGCCTCCGGTTCATG
modifications: O6-POB-dG at strand 1 position 9; 5-methyl-C at strand 1 position 8
B3: p53 codon 248 both MeC O6-POB-G (dsDNA)
DNA 1: CATGAACCGGAGGCCCATC
DNA 2: GATGGGCCTCCGGTTCATG
modifications: O6-POB-dG at strand 1 position 9; 5-methyl-C at strand 1 position 8 and strand 2 position 11
B4: p53 codon 248 O6-POB-G (dsDNA)
DNA 1: CATGAACCGGAGGCCCATC
DNA 2: GATGGGCCTCCGGTTCATG
modifications: O6-POB-dG at strand 1 position 9
B5: p53 codon 158 5'-MeC O6-POB-G (dsDNA)
DNA 1: ACCCGCGTCCGCGCCATGGCC
DNA 2: GGCCATGGCGCGGACGCGGGT
modifications: O6-POB-dG at strand 1 position 11; 5-methyl-C at strand 1 position 10 (text; Table 4 marks lost)

Each binder was assayed against AGT (O6-alkylguanine-DNA alkyltransferase) C145A (Homo sapiens, UniProt P16455 1-207, C145A) (assay: EMSA).
AGT (O6-alkylguanine-DNA alkyltransferase) C145A, sequence (P16455 whole entry C145A): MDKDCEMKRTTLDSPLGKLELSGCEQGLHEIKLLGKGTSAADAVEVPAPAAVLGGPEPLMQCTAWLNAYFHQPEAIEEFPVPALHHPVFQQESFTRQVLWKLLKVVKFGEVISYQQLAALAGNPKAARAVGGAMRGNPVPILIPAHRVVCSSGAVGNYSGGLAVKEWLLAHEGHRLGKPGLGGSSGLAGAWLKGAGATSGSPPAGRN

Row | Binder | Kd [nM]
1 | B1 | 1800 ± 300
2 | B2 | 2000 ± 200
3 | B3 | 1000 ± 100
4 | B4 | 2200
5 | B5 | 4800 ± 500
